Measured values: publication PMC8894342, “Humanization of a strategic CD3 epitope enables evaluation of clinical T-cell engagers in a fully immunocompetent in vivo model” (Scientific Reports, 2022)

Experiments:
Assay in all cases: SPR; Fc-tagged CD3E/D variants captured on a C1 chip by amine-coupled anti-human Fc or anti-murine Fc pAb; concentration series of Fab; HBS pH 7.4, 0.05% Tween-20, 1 g/L BSA, 37 °C; 1:1 Langmuir model with mass transport
Conditions in all cases: both partners purified
[1] = target: T1, chimeric human/murine CD3E - murine CD3D Fc-tagged heterodimer (Mus musculus CD3E/D with human CD3E …, UniProt P07766;P22646;P04235, chimera)
T1 construct: CD3 epsilon, mouse, with a 5-residue N-terminal stretch replaced by an 11-residue stretch of human CD3E; CD3 delta, mouse; also called Chimeric human/murine CD3E/D; h/mCD3E-mCD3D; source: Expi293, transiently co-expressed, purified (MabSelect Sure LX, Superdex 200)
T1 sequence (P22646 22-189, stated change not applied, chain 1 of 2): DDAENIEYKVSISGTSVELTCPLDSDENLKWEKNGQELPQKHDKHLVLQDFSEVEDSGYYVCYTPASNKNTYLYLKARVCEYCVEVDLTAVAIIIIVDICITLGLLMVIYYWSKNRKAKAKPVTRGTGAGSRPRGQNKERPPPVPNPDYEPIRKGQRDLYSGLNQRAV
T1 sequence (P04235 22-173, stated change not applied, chain 2 of 2): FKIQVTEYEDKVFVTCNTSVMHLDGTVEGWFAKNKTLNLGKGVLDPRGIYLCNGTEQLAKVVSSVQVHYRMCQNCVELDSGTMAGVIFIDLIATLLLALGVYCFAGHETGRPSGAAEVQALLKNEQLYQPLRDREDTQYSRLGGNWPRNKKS

[2] = target: T2, Fc-tagged human CD3E/D heterodimer (Homo sapiens, UniProt P07766;P04234)
T2 construct: CD3 epsilon, human; CD3 delta, human; also called hCD3E/D; source: Expi293, transiently co-expressed, purified (MabSelect Sure LX, Superdex 200)
T2 sequence (P07766 23-207, chain 1 of 2): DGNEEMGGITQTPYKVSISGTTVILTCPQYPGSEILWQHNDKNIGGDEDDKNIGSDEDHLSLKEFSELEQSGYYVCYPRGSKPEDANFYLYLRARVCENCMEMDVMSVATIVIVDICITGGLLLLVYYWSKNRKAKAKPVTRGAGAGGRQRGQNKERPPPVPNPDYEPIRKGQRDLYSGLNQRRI
T2 sequence (P04234 22-171, chain 2 of 2): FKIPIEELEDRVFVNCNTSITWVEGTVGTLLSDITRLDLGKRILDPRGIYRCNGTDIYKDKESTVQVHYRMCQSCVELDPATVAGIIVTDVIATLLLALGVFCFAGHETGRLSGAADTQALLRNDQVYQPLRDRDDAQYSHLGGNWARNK

[3] = target: T3, Fc-tagged murine CD3E/D heterodimer (Mus musculus, UniProt P22646;P04235)
T3 construct: CD3 epsilon, mouse; CD3 delta, mouse; also called mCD3E/D; source: Expi293, transiently co-expressed, purified (MabSelect Sure LX, Superdex 200)
T3 sequence (P22646 22-189, chain 1 of 2): as the sequence (P22646 22-189, stated change not applied, chain 1 of 2) above
T3 sequence (P04235 22-173, chain 2 of 2): as the sequence (P04235 22-173, stated change not applied, chain 2 of 2) above

[4] = target: T4, Fc-tagged cyno CD3E/D heterodimer (Macaca fascicularis, UniProt Q95LI5;Q95LI8)
T4 construct: CD3 epsilon, cynomolgus monkey; CD3 delta, cynomolgus monkey; source: Expi293, transiently co-expressed, purified (MabSelect Sure LX, Superdex 200)
T4 sequence (Q95LI5 22-198, chain 1 of 2): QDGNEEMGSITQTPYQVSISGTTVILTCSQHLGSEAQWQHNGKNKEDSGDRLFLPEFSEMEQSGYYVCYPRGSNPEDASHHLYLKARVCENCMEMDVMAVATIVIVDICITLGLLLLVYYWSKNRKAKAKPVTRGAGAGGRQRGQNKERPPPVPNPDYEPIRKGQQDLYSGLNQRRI
T4 sequence (Q95LI8 22-171, chain 2 of 2): as the sequence (P04234 22-171, chain 2 of 2) above, with I5V, N15K, I20V, S32T, D33N, I34N, T64A, S74N, V83L, H141R counted along it

| Kd [1] [nM] | binding result [2] | Kd [3] [nM] | binding result [4] | Kd [2] [nM] | binding result [3] | Kd [4] [nM] | Binder |
| --- | --- | --- | --- | --- | --- | --- | --- |
| 250 ± 16 | no binding | 22 ± 1.4 | no binding |  |  |  | 2C11 Fab (Fab, V domains shown, VH of 2C11; CH1 of the Fab; VL of 2C11; CL of the Fab; Murine surrogate anti-CD3 clone; cloned in pTT5 with an N-terminal osteonectin signal peptide; also called m2C11; source: Expi293, transient, purified (Ni Sepharose excel, Superdex 200)) VH: EVQLVESGGGLVQPGKSLKLSCEASGFTFSGYGMHWVRQAPGRGLESVAYITSSSINIKYADAVKGRFTVSRDNAKNLLFLQMNILKSEDTAMYYCARFDWDKNYWGQGTMVTVSS VL: DIQMTQSPSSLPASLGDRVTINCQASQDISNYLNWYQQKPGKAPKLLIYYTNKLADGVPSRFSGSGSGRDSSFTISSLESEDIGSYYCQQYYNYPWTFGPGTKLEIK |
| 8.6 ± 0.53 |  |  |  | 6.3 ± 0.18 | no binding | 6.5 ± 0.11 | hCD3.1 Fab (Fab, V domains shown, VH of hCD3.1; CH1 of the Fab; VL of hCD3.1; CL of the Fab; Anti-human CD3 arm of a clinical T-cell engager; cloned in pTT5 with an N-terminal osteonectin signal peptide; source: Expi293, transient, purified (Ni Sepharose excel, Superdex 200)) VH: EVQLVESGGGLVQPGGSLRLSCAASGFTFSDYYMTWVRQAPGKGLEWVAFIRNRARGYTSDHNPSVKGRFTISRDNAKNSLYLQMNSLRAEDTAVYYCARDRPSYYVLDYWGQGTTVTVSS VL: DIVMTQSPDSLAVSLGERATINCKSSQSLFNVRSRKNYLAWYQQKPGQPPKLLISWASTRESGVPDRFSGSGSGTDFTLTISSLQAEDVAVYYCKQSYDLFTFGSGTKLEIK |
| 3.1 ± 0.23 |  |  |  | 2.7 ± 0.45 | no binding | 2.7 ± 0.02 | hCD3.4 Fab (Fab, V domains shown, VH of hCD3.4; CH1 of the Fab; VL of hCD3.4; CL of the Fab; Anti-human CD3 arm of a clinical T-cell engager; cloned in pTT5 with an N-terminal osteonectin signal peptide; source: Expi293, transient, purified (Ni Sepharose excel, Superdex 200)) VH: QVQLVQSGAEVKKPGASVKVSCKASGFNIKDYYMHWVRQAPGQRLEWMGWIDLENGNTIYDPKFQGRVTITRDTSASTAYMELSSLRSEDTAVYYCARDGYGRYFYDVWGQGTLVTVSS VL: DIVMTQSPDSLAVSLGERATINCKSSQSLLNSRTGKNYLAWYQQKPGQPPKLLIYWASTRESGVPDRFSGSGSGTDFTLTISSLQAEDVAVYYCKQSYSRRTFGGGTKVEIK |
| 4.4 ± 0.27 |  |  |  | 4.1 ± 0.44 | no binding | 5 ± 0.5 | hCD3.5 Fab (Fab, V domains shown, VH of hCD3.5; CH1 of the Fab; VL of hCD3.5; CL of the Fab; Anti-human CD3 arm of a clinical T-cell engager; cloned in pTT5 with an N-terminal osteonectin signal peptide; source: Expi293, transient, purified (Ni Sepharose excel, Superdex 200)) VH: not shown VL: QAVVTQEPSLTVSPGGTVTLTCGSSTGAVTTSNYANWVQEKPGQAFRGLIGGTNKRAPGTPARFSGSLLGGKAALTLSGAQPEDEAEYYCALWYSNLWVFGGGTKLTVL |
| 4.2 ± 0.22 |  |  |  | 3.1 ± 0.35 | no binding | 3.8 ± 0.61 | hCD3.2 Fab (Fab, V domains shown, VH of hCD3.2; CH1 of the Fab; VL of hCD3.2; CL of the Fab; Anti-human CD3 arm of a clinical T-cell engager; cloned in pTT5 with an N-terminal osteonectin signal peptide; source: Expi293, transient, purified (Ni Sepharose excel, Superdex 200)) VH: EVQLVESGGGLVQPGGSLRLSCAASGFTFNTYAMNWVRQAPGKGLEWVARIRSKYNNYATYYAASVKGRFTISRDDSKNSLYLQMNSLKTEDTAVYYCARHGNFGNSYVSWFAYWGQGTLVTVSS VL: QTVVTQEPSLTVSPGGTVTLTCRSSTGAVTTSNYANWVQQKPGQAPRGLIGGTNKRAPGTPARFSGSLLGGKAALTLSGVQPEDEAEYYCALWYSNLWVFGGGTKLTVL |
| 7.3 ± 0.18 |  |  |  | 6.6 ± 0.46 | no binding | 7.5 ± 0.06 | SP34 Fab (Fab, V domains shown, VH of SP34; CH1 of the Fab; VL of SP34; CL of the Fab; Cyno cross-reactive anti-human CD3 clone; cloned in pTT5 with an N-terminal osteonectin signal peptide; source: Expi293, transient, purified (Ni Sepharose excel, Superdex 200)) VH: EVQLVESGGGLVQPKGSLKLSCAASGFTFNTYAMNWVRQAPGKGLEWVARIRSKYNNYATYYADSVKDRFTISRDDSQSILYLQMNNLKTEDTAMYYCVRHGNFGNSYVSWFAYWGQGTLVTVSA VL: QAVVTQESALTTSPGETVTLTCRSSTGAVTTSNYANWVQEKPDHLFTGLIGGTNKRAPGVPARFSGSLIGDKAALTITGAQTEDEAIYCALWYSNLWVFGGGTKLTVL |
